Reference: patent US6361968

Tests used:
[1] = CD thermal melts, homodimer
P16220 = test: thermal melt, homodimerization (FIG. 3)
P05412 = test: thermal melt, homodimer (FIG. 4)

B1: C/EBP bZIP domain (GCN4-C/EBP chimeric protein) (protein)
chain: SEYQPSLFALNPMGFSPLDGSKSTNENVSASTSTAKPMVGQLIFDKFIKTEEDPGKAKKSVDKNSNEYRVRRERNNIAVRKSRDKAKQRNVETQQKVLELTSDNDRLRKRVEQLSRELDTLRGIFRQLPESSLVKAMGNCA
- Tm decrease in 50 mM KCl against 150 mM KCl [1]: less stable by 4 °C in 50 mM KCl compared with 150 mM KCl

B2: CREB (unmodified) (protein)
chain: MASSPALPTQPAEEAARKREVRLMKNREAARECRRKKKEYVKCLENRVAVLENQNKTLIEELKALKDLYCHKSD
- Tm (P16220): Tm=47 °C

B3: c-Jun (unmodified) (protein)
chain: PLSPIDMESQERIKAERKRMRNRIAASKCRKRKLERIARLEEKVKTLKAQNSELASTANMLREQVAQLKQKVMNHVNSGCQLMLTQQLQTF
- Tm (P05412): homodimerization of unmodified c-Jun had a melting temperature of 29.4 °C
